Values of other authors, collected in publication PMC4584479.
pKd: −log10 of the molar value. Where two headings read alike, the source gives them in different places.

Experiments:
[1] = biological target: IL-15Rβ/γc (Homo sapiens) (UniProt P14784)
[2] = biological target: IL-15Rβ/γc (Homo sapiens) (UniProt P14784); remark: listed apart in the source

Sequence of UniProt P14784 (P14784 27-240, chain 1 of 2): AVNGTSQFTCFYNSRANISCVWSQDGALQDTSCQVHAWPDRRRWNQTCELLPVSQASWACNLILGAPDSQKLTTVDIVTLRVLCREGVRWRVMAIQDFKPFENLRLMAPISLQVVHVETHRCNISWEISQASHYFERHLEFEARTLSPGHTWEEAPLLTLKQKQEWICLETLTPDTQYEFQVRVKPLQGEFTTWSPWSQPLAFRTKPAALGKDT
Sequence of UniProt P14784 (P31785 23-262, chain 2 of 2, further chain): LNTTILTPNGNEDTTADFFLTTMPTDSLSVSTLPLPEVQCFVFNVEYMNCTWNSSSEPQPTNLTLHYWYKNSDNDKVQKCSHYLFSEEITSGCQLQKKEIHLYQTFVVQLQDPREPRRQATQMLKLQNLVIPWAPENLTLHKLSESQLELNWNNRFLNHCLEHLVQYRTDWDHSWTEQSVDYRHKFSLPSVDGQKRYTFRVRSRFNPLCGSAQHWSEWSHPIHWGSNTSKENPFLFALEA

Row | Substance | pKd [1] | pKd [2]
1 | IL-15 (from UniProt P40933) | 7.87 | 
2 | IL-15/IL-15Rα-sushi fusion protein (IL-15 hyperagonist) sushi domain of IL-15Rα fused to IL-15 (from UniProt P40933) |  | 9.11
